Experimental data reported in the DeepSol protein solubility set.

Test: soluble on expression in E. coli; label from the status in PepcDB or PDB records

Sequence | soluble on expression in E. coli
MGSDKIHHHHHHMRRKIPSTAALICFEAAARNESFTKAAQELALTQGAVCRQIGGLEAFLNVELFRRSRRGVRLTEAGLSYSRQVAAQLDAVERDTLSVMRQQGANVIELAVVPTFGTQWLLPRLKDFQQRHPEVTVNLTNRTRPFLFADTTFDAAIYFGDADWSGTQSHQLMGENPVPVCSPALLNGQGMLEARHIAQLPLLQQSTRPYAWRQWFGSVGMNVERDMTGPRYELFSMLAQAAMHDMGIALIPPFLIQRELEEGRLVVANRHALSSDKAYYLMIPERKVESASLRAFRDWLVSQAQAYINSSGTNAAN | not soluble
MGSSHHHHHHSSGLVPRGSHMYETYHSGWIECITGSMFSGKSEELIRRLRRGIYAKQKVVVFKPAIDDRYHKEKVVSHNGNAIEAINISKASEIMTHDLTNVDVIGIDEVQFFDDEIVSIVEKLSADGHRVIVAGLDMDFRGEPFEPMPKLMAVSEQVTKLQAVCAVCGSSSSRTQRLINGKPAKIDDPIILVGANESYEPRCRAHHIVAPSDNNKEEL | soluble
MAHHHHHHMSAKLTVAVPRLASTVLLLARNPKHAISEQRPATGDNAARENDIHVLIMKRHGKARFMPGVYVFPGGGIEGSDYAAATHYLAEHYNLHLQDAADKKVTTQDFIESCGQPSAEEAELEAWACRVGALRELAEEAACVLRRDGCIFSEAEWIKWQKSRSDAGATGGASTDPVSSRPATLLPIYDLPAVSSLRPVARWVSPRQSRYRYDTYFYAALVNSALVSAEAHKAAHAPCSTQASSCDEANAGMGVRCIPPQELPLLEQASEVSELLWISPLEALRRHEDPSDVFSLAPPTYLLLHALSLQPSFASLAAAWAAAPASPEDPAAKPLGDLPHSSVLPCVEPLSTMTEDGRRIMKFVLPARYFHETGWSVAEGEYLFPGECCAGHRHFIHVFVGRAGATTGDGATADKPCTILH | not soluble
MNVYRNQLIQLLPEITELKNLTTLDLSLNKLTQLPPEIGELNNLKTLYSSSNQLTQLPLEITKLKNLTELYLSSNLMIRLPLEITELKNLTTLNVYRNQLIQLPSKITELKNLKKLDLSRNQLAQLPPEIAELKNLTTLDLSRNQLAQLPPEIAELKNLTTLDLFENPLISLEHHHHHH | not soluble
MGSDKIHHHHHHMLYDVAIIGGGPSGAAAAEILARAGHSTILIERNLANVKPCGGAIPLGLIEEFDIPDELVEKKLTRMSVRSPKGETIFMHMPNGYVGMVRRERFDRYLREKAQKAGAEVVEALVKKIERSVDRFTLQLFNKEGEALPPVEASYVIGADGANSKTADELGFPPNDLKVIAMQQRFHYCDELKPYEELVEIWFDGEVSPDFYGWIFPKTDHIAIGTGTEEHRNDIKQLQHRFVEKIGIAEKPYLNEAAKIPMKPRRSFTQERAILVGDAAGLVTPANGEGIFFAMRSGKLGAEAMIERIRNNTPLSSYEKKFRKLYSPIFFGLQVLQSVYYKSDRLRESFVAICRDKDVQGITFDSYLYKKMVPAPWSVQMKIMAKNIYHLAKGS | not soluble
MLGPPSREKWSSDFPRWFDWVIETAEVYDYGRYPVKGMGVWMPYGFQIRRRVLEVVRGLLDSTGHEEVLFPLLIPEHLLRRESEHIRGFEGEVYWVTHGGREELDVKLALRPTSETSITYMETFWIKSYRQLPKKYYQVVSIFRYETKATRPMIRLREVTTFKEAHTVHESFEDAERQVLEAIEVYKAIFDRLLIPYVISKRPEWDKFAGALYTIAFDTIMPDGRALQIGTVHHLGQSFTRAFDFRIQMRDERLDHPWQTSYGVSDRVVASLIAVHGDDRGLVIPPSVAPIQVVVIPITPGDEEKRGKVLTYTAKAAEALEKAGLRVHVDDREWERPGAKFYYWEAKGVPIRVEIGLREAEQDTLTIARRDTLEKTEVPLGEAGNRIRELMAQIESSMRERAKSFFGERLLRTESLEEARDWVEGRRGIAEIPWCGRESCGLEMEERVNGKVLGTPWPEEPVEEGKRCPLCGRPAVAWIRLAKTY | soluble
ELGRLEDPAFTIKDAMIVATYPGATSKEVEEELTYPLEKEIRKLPYIDRITSTSSNGMSQIMVSMKMDYGPDELPQIWDEMRRKINDLQPTLPQGVQSLQIIDDFGDVYGVMLMLTGDDYDYVELKRYADHLRREIELVDGVGKVDIAGDQQEMLFVEISLDRLASLNLDMNVVSGLLNQQNNVVSAGEVMVNGESLVIRPSGTLNTVQALENLIIHGRDTGNLIRLKDVATITRGIQEKPGNMILFNGKKAINIGISFASGVNVVEVGERLNAELSSLESIKPAGLDMSYFYNQAQEVDDSVK | soluble
MASIMYTPKDIFEQEFKSSMRGYDKKEVDEFLDDIIKDYETYISTIEELRQENTRLKEEVKQAKKRQEAAQTTVSPAASVSSSRVATTATNFDILKRISRLEKEVFGKQITE | not soluble
